Results published in patent publication US20240159758A1 (OPKO DIAGNOSTICS, published 2024).

Key:
[1] = molecular target: T1, Intact prostate specific antigen (iPSA) (Homo sapiens (Human), UniProt P07288 25-261); assay: sandwich (noncompetitive) DELFIA immunoassay, capture probe
T1 construct: also called Intact PSA
Method: (§1) The concentrations of tPSA and fPSA are determined with commercial assays approved for use in human diagnostics by the FDA (Roche™ Cobas® instrument and Elecsys® assays). The concentrations of iPSA and hK2 are determined using a test developed to run on the PerkinElmer® AutoDELFIA® instrument.
(§2) The presence of iPSA and hK2 are detected by a sandwich (noncompetitive) immunoassay. The iPSA assay employs two distinct mouse monoclonal antibody products. The capture probe is a biotinylated, recombinant His₆-Cys-tagged Fab fragment of the monoclonal antibody 5A10 with specificity for fPSA (of which iPSA is a component). The tracer is a Europium-labelled monoclonal antibody 4D4, with specificity to iPSA and complexed PSA (PSA-ACT). In combination, the reagents are specific for iPSA. The hK2 assay employs five distinct mouse monoclonal antibody products. The capture probe is a biotinylated, F(ab)₂ fragment of 6H10 monoclonal antibody with specificity for hK2 and tPSA. […]
(§3) The signals obtained from the detection of iPSA and hK2 in the immunoassays are then compared to the signals obtained from the detection of a set of standards (e.g. the calibrator solutions) using the same iPSA and hK2 antibodies. […] The reporting range is defined by the limit of quantification (LoQ) at the low end and the highest calibrator at the high end. For the iPSA and hK2 assays, the LoQ was determined using CLSI EP-17A.

[2] = molecular target: T2, Free prostate specific antigen (fPSA) (Homo sapiens (Human), UniProt P07288 25-261); assay: as above
T2 construct: also called Free PSA
Method: as §1, §2, §3

T1 sequence (P07288 25-261 limits assumed): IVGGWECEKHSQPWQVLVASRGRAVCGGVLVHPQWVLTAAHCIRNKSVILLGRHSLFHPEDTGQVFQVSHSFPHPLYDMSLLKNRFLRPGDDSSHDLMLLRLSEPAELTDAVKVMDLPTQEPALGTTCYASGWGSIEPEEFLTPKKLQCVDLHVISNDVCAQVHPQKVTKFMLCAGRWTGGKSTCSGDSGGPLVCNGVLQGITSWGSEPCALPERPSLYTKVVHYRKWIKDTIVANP
T2 sequence (P07288 25-261 limits assumed): as above

binding result [1]: binds | binding result [2]: binds
B1: biotinylated, recombinant His6-Cys-tagged Fab fragment of the monoclonal antibody 5A10 (Fab, V domains shown)
VH: EVQLVESGPGILQPSQTLSLTCSFSGFSLSTTGMGVSWIRQPSGKGLEWLAHLYWDEDKRYNPSLKSRLTISEDSSRNQVFLKITSVGPADSATYYCARKGYYGYFDYWGQGTALTVSS
VL: DIVMTQSQKFMSTSVGDRVSVTCKASQNVNTDVAWYQQKPGQSPKALIFSTSYRSSGVPDRFTGSGSGTDFTLTITNVQSEDLAEYFCQQYSNYPLTFGAGTKVDLN
modifications: biotinylated (site not stated)
notes: Mouse monoclonal origin; also called Fab 5A10; 5A10 Fab
